# Earlier results as cited in patent US7435406B2, “Methods for conducting metabolic analyses” (Target Discovery, Inc., priority 1999, dated 2008).
# Details: protein standards obtained from Sigma-Aldrich
row,Molecule,pl
1,"Carbonic anhydrase II: protein standard from Sigma-Aldrich, Cat # T 6522",4.5
2,"Bovine ribonuclease A: protein standard from Sigma-Aldrich, Cat # R 5503 (protein, UniProt P61823 27-150, looked up) Ribonuclease pancreatic: KETAAAKFERQHMDSSTSAASSSNYCNQMMKSRNLTKDRCKPVNTFVHESLADVQAVCSQKNVACKNGQTNCYQSYSTMSITDCRETGSSKYPNCAYKTTQANKHIIVACEGNPYVPVHFDASV",9.6
